In PMC2652662, “Studies of a Ring-Cleaving Dioxygenase Illuminate the Role of Cholesterol Metabolism in the Pathogenesis of Mycobacterium tuberculosis” (PLoS Pathogens, 2009) one finds Km and kcat/Km data, which are given here for two molecules.

The target of data set [1] is T1, HsaC (Mycobacterium tuberculosis, UniProt P9WNW7).
T1 construct: full-length, recombinant in E. coli, purified anaerobically, no tag mentioned; Fe(II) enzyme; gene 903 bp; octamer
It counts as biochemical. The following applies: 20 mM HEPES, 80 mM NaCl, pH 7.0, 5% O2, 25°C; slow substrate, mechanism-based oxidative inactivation.

Data set [2] concerns Oc1cccc(-c2ccccc2)c1O. The experiment in a line: purified protein. The following applies: pH 7.0; 25.0 °C.
The subject of data set [3] is Cc1ccc(O)c(O)c1CCc1ccccc1Cl. The experiment in a line: purified protein. The note with it: pH 7.0; 25.0 °C.
Data set [4] concerns Cc1ccc(O)c(O)c1CC[C@@H]1C(=O)CC[C@]2(C)C(=O)CC[C@@H]12. The data set is described as follows: purified protein. The following applies: pH 7.0; 25.0 °C.
In data set [5] the test system is Cc1cc(Cl)c(O)c(O)c1CCc1ccccc1Cl. The data set is described as follows: purified protein. The note with it: pH 7.0; 25.0 °C.

T1 sequence (P9WNW7 whole entry): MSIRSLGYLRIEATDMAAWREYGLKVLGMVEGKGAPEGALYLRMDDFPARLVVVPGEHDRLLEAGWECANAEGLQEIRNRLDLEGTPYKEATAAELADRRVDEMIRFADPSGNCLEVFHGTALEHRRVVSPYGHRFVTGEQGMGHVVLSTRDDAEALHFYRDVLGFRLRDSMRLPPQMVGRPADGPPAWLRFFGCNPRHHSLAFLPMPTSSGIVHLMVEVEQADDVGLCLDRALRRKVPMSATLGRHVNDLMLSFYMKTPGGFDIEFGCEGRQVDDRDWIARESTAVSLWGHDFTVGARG

As to `Oc1cccc(-c2c(Cl)cccc2Cl)c1O` [2′,6′-diCl DHB], in data set [1], the Km turned out to be 6.7 µM.
For HsaC (Mycobacterium tuberculosis H37Rv), the Km in data set [2] is listed as 10 (2) µM; in data set [3], 4.8 (0.6) µM; in data set [4], 1.1 (0.2) µM; in data set [5], 3.2 (0.3) µM. In addition, the kcat/Km in data set [2] worked out at 160000 M⁻¹ s⁻¹; in data set [3] it was 1.4e+06 M⁻¹ s⁻¹; in data set [4], 1.5e+07 M⁻¹ s⁻¹; in data set [5], 85000 M⁻¹ s⁻¹.

The kcat/Km is the turnover number divided by the Michaelis constant.
